The target of the assay is human PSMA protein (ELISA) (human, UniProt Q04609 44-750). As to the kind of experiment: BLI (Octet).

This note sets out measurements from patent publication US20240131074A1 (published 2024).

For orientation: Kd means a measure of binding affinity in units of concentration. A high value points to weaker binding.

human PSMA protein (ELISA), sequence (Q04609 44-750): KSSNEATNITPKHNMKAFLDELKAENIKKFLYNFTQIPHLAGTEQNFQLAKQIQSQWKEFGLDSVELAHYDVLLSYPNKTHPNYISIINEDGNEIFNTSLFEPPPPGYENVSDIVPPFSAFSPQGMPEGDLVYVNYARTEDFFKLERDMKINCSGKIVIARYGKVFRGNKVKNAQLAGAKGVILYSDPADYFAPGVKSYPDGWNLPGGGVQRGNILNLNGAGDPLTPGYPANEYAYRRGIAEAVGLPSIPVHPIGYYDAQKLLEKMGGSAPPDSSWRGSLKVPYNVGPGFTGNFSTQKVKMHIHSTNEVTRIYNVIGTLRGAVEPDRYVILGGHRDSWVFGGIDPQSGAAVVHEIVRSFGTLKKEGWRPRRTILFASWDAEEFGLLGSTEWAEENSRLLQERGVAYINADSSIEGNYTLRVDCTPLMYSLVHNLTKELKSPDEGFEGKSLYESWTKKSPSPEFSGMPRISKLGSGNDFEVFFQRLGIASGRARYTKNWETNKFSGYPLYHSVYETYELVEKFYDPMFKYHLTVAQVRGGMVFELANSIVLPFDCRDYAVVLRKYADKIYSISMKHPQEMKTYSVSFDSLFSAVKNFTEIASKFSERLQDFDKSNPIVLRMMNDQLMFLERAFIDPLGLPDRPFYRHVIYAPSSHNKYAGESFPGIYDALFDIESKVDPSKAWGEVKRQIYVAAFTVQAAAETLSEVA

B1: Anti-PSMA heavy chain-only antibody (UniAb) Clone ID 325972 (antibody, V domains shown)
VH: EVQLLESGGGVVQPGRSLRLSCAASGFSFSGYGMHWVRQAPGKEREWVAVISYDGSNKYYADSVKGRFTISRDNSKNTLYLQMNSLRAEDTAVYYCAKDANWGQHPDHTSFDYRGQGTLVTVSS
On to B1, for which the Kd was determined as 17 nM.

B2: Anti-PSMA heavy chain-only antibody (UniAb) Clone ID 325795 (antibody, V domains shown)
VH: EVQLLESGGGLVQPGGSLRLSCAASGFTFKFYAMSWVRQAPGKGPEWVSVISGSGGSTYYADSVKGRFTISRDNSKNTLHLQMNSLRAEDTAVYFCAKEIAEASRGFDYRGQGTLVTVSS
B2 registered a Kd of 24.9 nM.
